Data reported in patent publication US20230203146A1 (Boehringer Ingelheim, published 2023).
Substitutions are numbered along the chain they refer to.

T1: N-terminally FLAG-tagged mouse Ang2 (HEK293T conditioned medium) (mouse, UniProt O35608 19-496)
T1 construct: may be a nucleotide entry; also called mAng2; FLAG-mAng2
T1 sequence: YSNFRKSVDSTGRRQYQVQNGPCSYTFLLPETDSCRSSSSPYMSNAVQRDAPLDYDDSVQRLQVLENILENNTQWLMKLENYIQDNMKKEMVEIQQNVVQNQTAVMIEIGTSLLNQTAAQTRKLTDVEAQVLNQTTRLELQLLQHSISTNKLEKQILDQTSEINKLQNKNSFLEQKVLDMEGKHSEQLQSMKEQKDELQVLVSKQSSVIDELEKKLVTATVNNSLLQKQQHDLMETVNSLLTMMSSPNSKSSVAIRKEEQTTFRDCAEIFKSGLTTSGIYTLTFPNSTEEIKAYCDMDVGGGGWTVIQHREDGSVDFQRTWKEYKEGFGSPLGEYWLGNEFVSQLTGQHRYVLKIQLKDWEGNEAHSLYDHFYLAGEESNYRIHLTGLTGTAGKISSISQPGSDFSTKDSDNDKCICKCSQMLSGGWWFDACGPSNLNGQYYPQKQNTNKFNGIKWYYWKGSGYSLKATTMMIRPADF

T2: recombinant human Ang2-FLD (human, UniProt O15123 275-496, limits assumed)
T2 construct: domain: FLD; not used
T2 sequence (looked up): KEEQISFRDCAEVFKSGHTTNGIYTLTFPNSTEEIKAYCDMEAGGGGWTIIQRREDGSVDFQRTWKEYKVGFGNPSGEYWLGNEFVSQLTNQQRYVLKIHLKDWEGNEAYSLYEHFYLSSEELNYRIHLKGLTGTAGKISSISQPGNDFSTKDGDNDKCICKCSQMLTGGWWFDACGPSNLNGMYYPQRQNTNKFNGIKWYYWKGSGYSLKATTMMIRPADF

B1: VHH 3A07 (VHH)
VHH: EVQLVESGGGLVQPGGSLRLSCAASGFTLDYDAIGWFRQAPGKEREGVSCITSSDGITYYADSVKGRFTISRDNAKNTVYLQMNSLKPEDTAVYYCATGNRRIYYSDYALACFPYEYDYWGQGTQVTVSS
notes: also called 003A07; not shown: C-terminal c-myc tag and His6 tag
B2: VHH 6H05 (VHH)
VHH: EVQLVESGGGLVQAGGSLRLSCAASGFTFDDYAIGWFRQAPGKEREGVSCISSSDGSTAYADSVKGRFTISSDNAKNTVYLQMNSLKPEDTAVYYCTAVPATRRTPQMVAANVCWLAEYEYDYWGQGTQVTVSS
notes: also called 006H05; not shown: C-terminal c-myc tag and His6 tag
B3: VHH 21G10 (VHH)
VHH: EVQLVESGGGLVQAGGSLRLSCAASGFTLDDYAIGWFRQAPGKEREGVSCISSSDGSTTYADSVKGRFTVSSDNAKNTVYLQMNSLKPEDTAVYYCAAGLRGRYYRGTYSLVCAPYEYDFWGQGTQVTVSS
notes: also called 021G10; not shown: C-terminal c-myc tag and His6 tag
B4: VHH 10C06 (VHH)
VHH: EVQLVESGGGLVQAGGSLRLSCVASGFTFDDYAIGWFRQAPGKEREGVSCISSSDGSTYYADSVKGRFTISGDNAKNTVYLQMNSLKPEDTAVYYCAAGITPCSDYTQTYEYDVWGQGTQVTVSS
notes: also called 010C06; not shown: C-terminal c-myc tag and His6 tag
B5: VHH 3F02 (VHH)
VHH: EVQLVESGGGLVQVGDSLRLACAASGRTFSTYLMVGWFRQAPGKEREFAAGIWSSGDTAYADSVKGRFTISRDNAKNTVYLQMNSLKTEDTAVYYCAGSYDGNYYIPGFYKDWGQGTQVTVSS
notes: also called 003F02; not shown: C-terminal c-myc tag and His6 tag
B6: VHH 2F04 (VHH)
VHH: EVQLVESGGGLVQAGGSLRLSCAASGFAFDDHLIGWFRQAPGKEREAVSCISRSAGSTYYADSVKGRFTISSDNAKNTVYLQMNSLKADDTAVYYCAAGPAWGRPASPLPYEYDYWGQGTQVTVSS
notes: also called 002F04; not shown: C-terminal c-myc tag and His6 tag
B7: VHH 55D06 (VHH)
VHH: EVQLVESGGGLVQAGGSLRLSCAASGLTLDDYAIGWFRQAPGKEREGVSSIRDNDGSTYYADSVKGRFTISSDNDKNTVYLQMNSLKPEDTAVYYCAAVPAGRLRFGEQWYPIYEYDAWGQGTLVTVSS
notes: periplasmic extract; not shown: C-terminal c-myc tag and His6 tag
B8: VHH 53A06 (VHH)
VHH: B7 VHH with G10S
notes: as for B7
B9: VHH 64C07 (VHH)
VHH: B7 VHH with Q3H, K43V
notes: as for B7
B10: VHH 55G03 (VHH)
VHH: B7 VHH with G10S
notes: as for B7
B11: VHH 64B02 (VHH)
VHH: B7 VHH with S17F, S21T, A24V, L27F, D75V
notes: as for B7
B12: VHH 64B01 (VHH)
VHH: B7 VHH with S17T, A24V, L27F, T123I
notes: as for B7
B13: VHH 64G02 (VHH)
VHH: B7 VHH with A24I, L27F, D30V, T69I
notes: as for B7
B14: VHH 64E12 (VHH)
VHH: B7 VHH with A24V, L27F, F68S
notes: as for B7
B15: VHH 60A06 (VHH)
VHH: B7 VHH with L27F, E44D, F106Y, L124V
notes: as for B7
B16: VHH 58D10 (VHH)
VHH: B7 VHH with V2E, Q3L, L11S, R19K
notes: as for B7
B17: VHH 60C09 (VHH)
VHH: B7 VHH with A24V, L27I, G66W, L86M, T123I
notes: as for B7
B18: VHH 64F07 (VHH)
VHH: B7 VHH with E1Q, A24V, L27F, K76Q, P88S
notes: as for B7
B19: VHH 64G12 (VHH)
VHH: B7 VHH with A24V, L27F, D53E, K65Q, Q82R
notes: as for B7
B20: VHH 65F03 (VHH)
VHH: B7 VHH with L4M, S85G
notes: as for B7
B21: VHH 64A03 (VHH)
VHH: B7 VHH with V5L, L27F, F106I
notes: as for B7
B22: VHH 56A07 (VHH)
VHH: B7 VHH with L27F, F68S, D75A, K76R, Y80F
notes: as for B7
B23: VHH 64G01 (VHH)
VHH: B7 VHH with L27F, T69I, S85N, F106Y
notes: as for B7
B24: VHH 65F01 (VHH)
VHH: B7 VHH with T58R
notes: as for B7
B25: VHH 64G03 (VHH)
VHH: B7 VHH with L27F, F68S, N84D, F106Y
notes: as for B7
B26: VHH 55A06 (VHH)
VHH: B7 VHH with V5M, L27I, Y80N
notes: as for B7
B27: VHH 64C03 (VHH)
VHH: B7 VHH with L27F, F106Y
notes: as for B7
B28: VHH 64D11 (VHH)
VHH: B7 VHH with L11Q, V12A, A24V, L27F, A61T
notes: as for B7
B29: VHH 55F02 (VHH)
VHH: B7 VHH with A14S
notes: as for B7
B30: VHH 64F03 (VHH)
VHH: B7 VHH with A24V, L27I, I34V, S50T, E89K
notes: as for B7
B31: VHH 64G11 (VHH)
VHH: B7 VHH with L27I, E46V
notes: as for B7
B32: VHH 16G09 (VHH)
VHH: EVQLVESGGGLVQAGGSLRLVCSASGIDFSINAMAWYRQAPGKQREWVAFMINDSSTDYTDSVKGRFTISRDSTKNILYLQMNNLNVEDTAVYYCNTAYEQHTYWGQGTQVTVSS
notes: also called 016G09; not shown: C-terminal c-myc tag and His6 tag
B33: VHH 12B03 (VHH)
VHH: EVQLVESGGGLVQSGGSLRLSCAASGFALDYYTIGWFRQAPGKEREGVSCISGGDTSTYYADSVKGRFTISRDNAKNTVYLQMNSLKPEDTAVYYCATDSAGVPAGPAAVYGSTCSRLEYDYWGQGAQVTVSS
notes: also called 012B03; not shown: C-terminal c-myc tag and His6 tag
B34: VHH 14H02 (VHH)
VHH: EVQLVESGGGLVQAGGSLRLSCAASGFTFDEYAIGWFRQAPGKEREGVSYISSSDGSTYYADSVKGRVTSSSDNAKNTVYLQMNSLKPEDTAVYYCAARPTLRVRLDNDRHHLLYEYEYDYWGQGTQVTVSS
notes: also called 014H02; not shown: C-terminal c-myc tag and His6 tag

Experiments:
[1] = target: T1, N-terminally FLAG-tagged mouse Ang2 …; test: competition ELISA, FLAG-mAng2 on coated mTie2-Fc
Protocol: In brief, 2 μg/mL of recombinant mouse Tie2-Fc or cyno Tie2-Fc is coated overnight at 4° C. in a 96-well MaxiSorp plate (Nunc, Wiesbaden, Germany). Coated wells are blocked with a 1% casein solution.

[2] = target: T2, recombinant human Ang2-FLD; test: ProteOn off-rate assay, periplasmic extract 1:10 over coated human Ang2-FLD
Protocol: In a first cycle, amino acid substitutions are introduced randomly in both framework (FW) and complementary determining regions (CDR) using the error-prone PCR method. […] After a polish step, PCR products are inserted via unique restriction sites into a vector designed to facilitate phage display of the VHH library. […] Periplasmic extract of affinity matured clones is diluted 1:10 and injected across the “analyte channels” A1-A6.

Binder | IC50 [1] [nM] | fold improvement (off-rate against VHH 00027) [2] [fold] | koff [2] [s⁻¹]
B1 | 99.3 | – | –
B2 | 7.7 | – | –
B3 | 16.8 | – | –
B4 | 45.2 | – | –
B5 | 32.7 | – | –
B6 | 57.4 | – | –
B7 | – | 9.4 | 0.00012
B8 | – | 8 | 0.00016
B9 | – | 8.3 | 0.00014
B10 | – | 8 | 0.00015
B11 | – | 8.5 | 0.00014
B12 | – | 8.2 | 0.00014
B13 | – | 9.4 | 0.00012
B14 | – | 8.7 | 0.00013
B15 | – | 8.3 | 0.00016
B16 | – | 8.1 | 0.00013
B17 | – | 8.5 | 0.00016

Binder | IC50 [1] [nM] | fold improvement (off-rate against VHH 00027) [2] [fold] | koff [2] [s⁻¹]
B18 | – | 9.4 | 0.00012
B19 | – | 8.9 | 0.00013
B20 | – | 8.9 | 0.00014
B21 | – | 8.3 | 0.00014
B22 | – | 8.1 | 0.00015
B23 | – | 8.2 | 0.00014
B24 | – | 8.1 | 0.00016
B25 | – | 15.7 | 7.4e-05
B26 | – | 9.2 | 0.00013
B27 | – | 9.2 | 0.00013
B28 | – | 10.3 | 0.00011
B29 | – | 8.7 | 0.00014
B30 | – | 10.8 | 0.00011
B31 | – | 9.6 | 0.00012
B32 | 19.4 | – | –
B33 | 6.7 | – | –
B34 | 143 | – | –
